Source: patent publication US6977154, “Nucleic acid binding proteins” (Gendaq Limited)
Where a chain is given by its changes, count along the chain named.

Columns and labels:
Experiment in all cases: phage ELISA, apparent Kd; PBS, 50 uM ZnCl2, 20 C
Conditions in all cases: protein: virion; tags: phage fd pIII fusion (Fd-Tet-SN), Zif268 framework; label: 5' biotin
[1] = target: zfHAE(Y)
Description: (§1) Binding sites are synthesised as described above, including biotinylated sites where 5-meC (M) is replaced by a C or T (with appropriate bases in the complementary strand). Two-fold dilutions of DNA are added to separate wells of a streptavidin-coated microtitre plate (Boehringer Mannheim) in 50 µl PBS containing 50 µM ZnCl_2 (PBS/Zn). Phage solution (bacterial culture supernatant diluted 1:10 in PBS/Zn containing 2% (w/v) fat-free dried milk (Marvel), 1% (v/v) Tween and 20 µg/ml sonicated salmon sperm DNA) are applied to each well (50 µl/well). Binding is allowed to proceed for one hour at 20° C. Unbound phage are removed by washing 6 times with PBS/Zn containing 1% (v/v) Tween, then 3 times with PBS/Zn. Bound phage are detected by ELISA using horseradish peroxidase-conjugated anti-M13 IgG (Pharmacia Biotech) and the colourimetric signal quantitated using SOFTMAX 2.32 (Molecular Devices).
(§2) Zinc finger phage binding for each of the above clones is titrated against different amounts of methylated and unmethylated DNA oligos to derive values of the apparent dissociation constants (K_ds) for either DNA binding site (see FIGS. 4 and 5). The apparent Kd of each clone for the optimally bound DNA site(s) is in the nanomolar range, similar to that of wild-type Zif268 DNA-binding domain for its preferred target site using this assay. Clones zfHAE(M) (Table 1 F1: SEQ ID NO.:20; F2: SEQ ID NO.:25; F3: SEQ ID NO.:30) and zfHHA(M) (Table 1 F1: SEQ ID NO.:21; F2: SEQ ID NO.:26; F3: SEQ ID NO.:31) preferentially bind their respective DNA target sites when 5-meC is incorporated into the correct nucleotide positions, and discriminated against the unmethylated DNA sites by factors of approximately 20-fold and 5-fold, respectively.

[2] = target: zfHAE(M)
Description: as §1, §2

[3] = target: zfHAE(M); remark: listed apart in the source
Description: as §1

[4] = target: zfHHA(M)
Description: as §1, §2

[5] = target: zfHHA(Y)
Description: as §1, §2

B1: HAE(M) G-GGMC-GGCG (dsDNA)
DNA 1: TATAGTGGGCCGGCGTGTCACAGTCAGTCCACACACGTC
DNA 2: GACGTGTGTGGACTGACTGTGACACGCCGGCCCACTATA
modifications: 5mC at M (G-GGMC-GGCG), both strands [10 (5mC)]
Binder B1 has a Kd [1] of 6.3 nM and a Kd [2] of 2 nM.

B2: HAE(T) G-GGTC-GGCG (dsDNA)
DNA 1: B1 DNA 1 with C10T
DNA 2: B1 DNA 2 with G30A
B2 gave a Kd [3] of 27 nM.

B3: HHA(M) G-GMGC-GGCG (dsDNA)
DNA 1: B1 DNA 1 with G9C, C10G
DNA 2: B1 DNA 2 with G30C, C31G
modifications: 5mC at M (G-GMGC-GGCG), both strands [5mC at 9 (top strand); bottom-strand 5mC opposite G10]
B3 gave a Kd [4] of 14 nM and a Kd [5] of 14 nM.
